Measurements taken from patent publication EP4491630A1, “T-CELL RECEPTOR FOR ACUTE MYELOID LEUKEMIA (AML)” (Universitetet I Oslo, priority 2023, dated 2025).
Ends that are not written are not given here.

Key:
TCR^FLT3D/Y cells = conditions: 28 candidate 9mers from the human proteome pulsed on K562 cells
Experimental: TCR-transduced T cells were co-cultured with cell lines or primary patient tumor cells at an effector:target cell ratio of 1:2 (100,000:200,000 cells/well) and reactivity was investigated by measuring CD137 upregulation or release of IFN-γ. […] Cells were placed in round or flat bottom 96-well plates and after 18-20 h of co-incubation centrifuged at 700 g for 2 min. Supernatants were harvested for measurement of IFN-γ by ELISA, while cells were washed and stained with anti-CD137. In some experiments, transduced T cells were labeled with 0.75 µM CTV to distinguish them from target cells. Reagents for IFN-γ ELISA were acquired from BD Pharmingen or R&D Systems: mouse anti-human IFN-γ capture antibody (NIB42), Biotin Mouse Anti-Human IFN-γ detection antibody (4S.B3), streptavidin-HRP, stabilized tetramethylbenzidine and hydrogen peroxide as substrate solutions, sulfuric acid as stop solution, and recombinant human IFN-γ protein as standard. The assay was performed according to manufacturer's instructions.

[1] = molecular target: HLA-A2 presenting the cognate NY-ESO1 peptide (human) (UniProt P78358); experiment: cell-based or functional assay
[2] = molecular target: T1, PRADC1 peptide on HLA-A*02:01 (human); experiment: cytokine release
T1 peptide: AVDNDSFYV

[3] = molecular target: T2, MED1 peptide on HLA-A*02:01 (human); experiment: cytokine release
T2 peptide: YITSDMFYV

[4] = molecular target: T3, LZTR1 peptide on HLA-A*02:01 (human); experiment: cytokine release
T3 peptide: AVISDAMYI

[5] = molecular target: T4, FLT3 D835Y peptide on HLA-A*02:01 (human); experiment: CD137 upregulation; transduced T cells of 4 donors against HLA-A2-transduced K562 pulsed with titrated peptide; full-length, on cells
T4 peptide: YIMSDSNYV

[6] = molecular target: T5, FLT3 wild type peptide on HLA-A*02:01 (human); experiment: multimer staining
T5 peptide: DIMSDSNYV

YITSDMFYV [peptide 12]
activation of TCR^FLT3D/Y cells (IFN-γ production) (TCR^FLT3D/Y cells): activated

AVDNDSFYV [peptide 15]
activation of TCR^FLT3D/Y cells (IFN-γ production) (TCR^FLT3D/Y cells): activated

AVISDAMYI [peptide 11]
activation of TCR^FLT3D/Y cells (IFN-γ production) (TCR^FLT3D/Y cells): activated

NY-ESO1-specific TCR 1G4
T cell activation by peptide-pulsed target cells, EC50 [1]: 5.5 nM

B1: TCR^FLT3D/Y (TCR, V domains shown)
Valpha: ELKVEQNPLFLSMQEGKNYTIYCNYSTTSDRLYWYRQDPGKSLESLFVLLSNGAVKQEGRLMASLDTKARLSTLHITAAVHDLSATYFCAVVGGSQGNLIFGKGTKLSVKP
Vbeta: DVKVTQSSRYLVKRTGEKVFLECVQDMDHENMFWYRQDPGLGLRLIYFSYDVKMKEKGDIPEGYSVSREKKERFSLILESASTNQTSMYLCASSLSPGGGYGYTFGSGTRLTVV
binding result [2]: recognises | binding result [3]: recognises | binding result [4]: recognises | EC50 of peptide [5]: 0.081 nM | binding result [6]: no recognition
